The values that follow come from patent US20030145350A1, “Method for increasing the content of fatty acids in plants and micro-organisms” (priority 2000, published 2003).

Where two headings read alike, the source gives them in different places.

For assay [1], the target named is T1, Cuphea wrightii KAS IIIa (β-ketoacyl ACP synthase IIIa), recombinant wild-type, GenBank U15935 (Cuphea wrightii, UniProt P49244).
T1 construct: His6 (N); made in house; host or cells: E. coli BL21(DE3)pLys, pET 15b vector
T1 sequence (P49244 68-400 limits assumed): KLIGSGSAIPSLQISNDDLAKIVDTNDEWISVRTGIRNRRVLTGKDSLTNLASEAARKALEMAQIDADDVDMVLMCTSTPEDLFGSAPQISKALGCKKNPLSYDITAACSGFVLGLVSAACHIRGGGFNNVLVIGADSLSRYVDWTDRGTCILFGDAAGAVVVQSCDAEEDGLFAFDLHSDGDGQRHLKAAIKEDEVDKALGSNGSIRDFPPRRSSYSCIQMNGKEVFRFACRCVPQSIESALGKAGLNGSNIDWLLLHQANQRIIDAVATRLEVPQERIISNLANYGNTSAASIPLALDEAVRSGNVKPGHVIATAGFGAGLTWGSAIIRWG
The assay is described as follows: Inhibition of recombinant wild-type KAS IIIa by acyl ACPs and acyl CoAs ([1-14C] acetate incorporation into acetoacetyl ACP; Lineweaver-Burk). Type of assay: biochemical. How it is done:
(§1) Wild-type KAS III and KAS IIIa mutants were expressed with a His6-tag at the N-terminus in E. coli strain BL21(DE3)pLys (Novagen, Madison, USA) and purified by nickel affinity chromatography. Purity of the synthesised KAS IIIs was evaluated by SDS-PAGE. The KAS III concentration was determined by the method of Bradford (M. M. Bradford (1976), Anal. Biochem. 72, p. 248-254).
(§2) The activity of KAS IIIa was analysed by the incorporation of radioactive acetate from [1-^14C] acetyl CoA into acetoacetyl ACP (Brück et al. (1996), Planta 198, p. 271-278). The reaction mix (50 μl) contained 100 mM sodium phosphate, pH 7.6, 10 μM [1-^14C] acetyl CoA, 20 μM malonyl ACP and 2 ng of the recombinant KAS IIIa or the KAS IIIa mutant, respectively. The reaction was initiated by adding the enzyme and was performed for a period of 5 minutes at 30° C.
(§3) In the inhibition studies of the wild-type KAS IIIa the used conditions provided for saturation with respect to the substrates acetyl CoA and […]. As regards the inhibitors non-radioactive acyl ACPs (C2-C16) or acyl CoAs (C3-C12) were added at varying concentrations. The resulting data were analysed by the method of Lineweaver-Burk. The inhibition studies of the KAS IIIa mutants with acyl ACPs were performed with 10 μM non-radioactive dodecanoyl ACP (see FIG. 3).
(§4) The KAS III activity was measured as described above in the presence of varying concentrations of acyl ACP (5-25 μM) or of acyl CoA (10-50 μM).
FIG. 2: Kinetic of the inhibition of wild-type KAS III by dodecanoyl ACP. Double reciprocal plots of the concentration of acetyl CoA (A) and malonyl ACP (B) against the activity of KAS III in the absence (●) and presence of 1 μM (▴), 2.5 μM (▪) and 5 μM (▾) dodecanoyl ACP. The respective substrate partner was maintained at a constant level at 10 μM [1-^14C] acetyl CoA and 20 μM malonyl ACP. The enzyme activity was determined by monitoring the incorporation of [1-^14C] acetate from [1-^14C] acetyl CoA into β-ketobutyryl ACP (n=8).

In assay [2] the target is recombinant wild-type Cuphea wrightii β-ketoacyl ACP synthase IIIa (cwKAS IIIa) (Cuphea wrightii). Kind of assay: inhibition of KAS IIIa enzyme activity ([1-14C] acetyl CoA incorporation), 5-25 µM acyl ACP, Lineweaver-Burk analysis.
Assay [3] concerns Cuphea wrightii KAS IIIa mutant Asn358Asp (N291D in the mature protein). Kind of assay: Inhibition of KAS IIIa mutant Asn358Asp by dodecanoyl ACP. Type of assay: biochemical. How it is done:
(§5) Then, three point-mutated KAS IIIs were created by the substitution of asparagine^358 by aspartate, alanine^361 by serine and alanine^362 by proline. The amplification of the overlapping DNA fragments of the KAS III mutants was performed by two separate reactions, which each contained 2 ng K3MK-pGEMT plasmid as template, 2.5 U proof-reading Pfu polymerase, 200 μM dNTPs and 50 pmol of each of the primers in a total volume of 50 μl. Each reaction mix contained a flanking primer (Fse5 or Xho3) and the corresponding mutation primer. […]
as §1
(§6) The activity of KAS IIIa was analysed by the incorporation of radioactive acetate from [1-^14C] acetyl CoA into acetoacetyl ACP (Brück et al. (1996), Planta 198, p. 271-278). […]
(§7) In the inhibition studies of the wild-type KAS IIIa the used conditions provided for saturation with respect to the substrates acetyl CoA and malonyl CoA. […] The resulting data were analysed by the method of Lineweaver-Burk. […]

The test system of assay [4] is Cuphea wrightii KAS IIIa mutant Ala361Ser (A294S in the mature protein). The assay is described as follows: Inhibition of KAS IIIa mutant Ala361Ser by dodecanoyl ACP. Type of assay: biochemical. How it is done: as §5, §1, §6, §7
The target of assay [5] is Cuphea wrightii KAS IIIa mutant Ala^361Ser (Cuphea wrightii). The assay is described as follows: cell-based or functional assay.
Assay [6] deals with Cuphea wrightii KAS IIIa mutant Asn^358Asp (Cuphea wrightii). Kind of assay: cell-based or functional assay.
The target in another assay is T2, wild-type KAS IIIa (Cuphea wrightii, UniProt P49244).
T2 construct: His6 (N); made in house; host or cells: E. coli BL21(DE3)pLys, vector pET15b
T2 sequence (P49244 68-400 limits assumed): T1 sequence (P49244 68-400 limits assumed)
Kind of assay: Inhibition of wild-type KAS IIIa by acyl ACPs and acyl CoAs ([1-14C] acetyl CoA incorporation into acetoacetyl ACP). Particulars: with respect to acetyl CoA or malonyl CoA; Lineweaver-Burk. Type of assay: biochemical. The method, then:
as §2, §3, §4
FIG. 2: Kinetic of the inhibition of wild-type KAS III by dodecanoyl ACP. […] The enzyme activity was determined by monitoring the incorporation of [1-^14C] acetate from [1-^14C] acetyl CoA into β-ketobutyryl ACP (n=8).

Where [7] appears, read: acyl CoA 10-50 μM, pH 7.6, 30° C., 5 minutes, Lineweaver-Burk, read-out: Ki (acyl CoAs).
Where [8] appears, read: in the presence of a saturation concentration (10 μM) of dodecanoyl ACP.

dodecanoyl ACP, sequence (P0A6A8 2-78): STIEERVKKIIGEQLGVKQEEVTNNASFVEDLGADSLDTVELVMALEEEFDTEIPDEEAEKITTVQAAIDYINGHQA
acyl ACP, chain length 10 carbon atoms, sequence (P0A6A8 2-78): as above
acyl ACP, chain length 2 carbon atoms, sequence (P0A6A8 2-78): as above
acyl ACP, chain length 16 carbon atoms, sequence (P0A6A8 2-78): as above
acyl ACP, chain length 6 carbon atoms, sequence (P0A6A8 2-78): as above
acyl ACP, chain length 8 carbon atoms, sequence (P0A6A8 2-78): as above
acyl ACP, chain length 4 carbon atoms, sequence (P0A6A8 2-78): as above
acyl ACP, chain length 14 carbon atoms, sequence (P0A6A8 2-78): as above

What is called Ki is a measure of affinity in units of concentration, obtained from inhibition or displacement. As for `CCC(=O)SCCNC(=O)CCNC(=O)[C@H](O)C(C)(C)COP(=O)(O)OP(=O)(O)OC[C@H]1O[C@@H](n2cnc3c(N)ncnc32)[C@H](O)[C@@H]1OP(=O)(O)O` [acyl CoA C3], the Ki in assay [1] amounted to 20.8 ± 0.51 µM. Still for that read-out and setting: the figure for `CCCC(=O)SCCNC(=O)CCNC(=O)[C@H](O)C(C)(C)COP(=O)(O)OP(=O)(O)OC[C@H]1O[C@@H](n2cnc3c(N)ncnc32)[C@H](O)[C@@H]1OP(=O)(O)O` [acyl CoA C4] is 91.9 ± 0.9 µM.

As for `CCCCCC(=O)SCCNC(=O)CCNC(=O)[C@H](O)C(C)(C)COP(=O)(O)OP(=O)(O)OC[C@H]1O[C@@H](n2cnc3c(N)ncnc32)[C@H](O)[C@@H]1OP(=O)(O)O` [acyl CoA C6], the Ki in assay [1] (setting [7]) came to 42.7 ± 0.3 µM. On the same count and under the same terms, the figure for `CCCCCCCC(=O)SCCNC(=O)CCNC(=O)[C@H](O)C(C)(C)COP(=O)(O)OP(=O)(O)OC[C@H]1O[C@@H](n2cnc3c(N)ncnc32)[C@H](O)[C@@H]1OP(=O)(O)O` [acyl CoA C8] is 24.4 ± 0.6 µM. Still for that read-out and setting: the figure for `CCCCCCCCCC(=O)SCCNC(=O)CCNC(=O)[C@H](O)C(C)(C)COP(=O)(O)OP(=O)(O)OC[C@H]1O[C@@H](n2cnc3c(N)ncnc32)[C@H](O)[C@@H]1OP(=O)(O)O` [acyl CoA C10] is 12.5 ± 0.6 µM. In the case of `CCCCCCCCCCCC(=O)SCCNC(=O)CCNC(=O)[C@H](O)C(C)(C)COP(=O)(O)OP(=O)(O)OC[C@H]1O[C@@H](n2cnc3c(N)ncnc32)[C@H](O)[C@@H]1OP(=O)(O)O` [acyl CoA C12], in assay [1] (setting [7]), the Ki came to 20 ± 0.7 µM.

acyl ACP, chain length 2 carbon atoms: the Ki in assay [2] turned out to be 2.16 µM. Take acyl ACP, chain length 4 carbon atoms: the Ki in assay [2] worked out at 2.9 µM. For the molecule acyl ACP, chain length 6 carbon atoms, in assay [2], the Ki was 8 µM. Still for that read-out and setting: the figure for acyl ACP, chain length 8 carbon atoms is 4.1 µM; for acyl ACP, chain length 10 carbon atoms it is 4.1 µM; for acyl ACP, chain length 14 carbon atoms it is 4 µM. Still for that read-out and setting: the figure for acyl ACP, chain length 16 carbon atoms is 1.3 µM. dodecanoyl ACP [listing 1 of 2 here]: the “inhibition by acyl ACP (in words)” value in assay [3] (10 μM dodecanoyl ACP) and in assay [4] (10 μM dodecanoyl ACP) was “almost not at all inhibited” each time. Moreover, the initial activity maintained entry in assay [3] (setting [8]) and in assay [4] (setting [8]) was “about 85%” each time. Consider dodecanoyl ACP [listing 2 of 2 here], for which the initial activity maintained in the presence of a saturation concentration (10 µM) of dodecanoyl ACP in assay [5] and in assay [6] was 85% in each case. Moreover, the inhibition constant (Ki) in assay [2] worked out at 0.4 µM.

As for dodecanoyl ACP [acyl ACPs 12], the “type of inhibition of KAS IIIa” value with wild-type KAS IIIa was “not competitive”.
